One may read the kcat as the number of substrate molecules converted per active site and unit of time at saturation. A word on the KM: it is the concentration of substrate that gives half-maximal velocity.

To fix the notation:
B1: glmS ribozyme (parent)
chain: AUAAAAGCGCCAGAACUACAGAAAUGUAGUUGACGAGGAGGAGGUUUAUCGAAUUUUCGGCGGAUGCCUCCAAA

What all share (conditions): with glucosamine-6-phosphate
In series [1] the parent is B1. The experiment in a line: kcat; higher = faster cleavage; RNA array. In outline:
(§1)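 Barcoded ribozyme variants were transcribed in situ on sequenced MiSeq chips by E. coli RNA polymerase. At 37 °C, a hybridised Cy3 probe tracked them while glucosamine-6-phosphate (40 μM to 10 mM) in HEPES/KCl/Mg(OAc)2 buffer flowed in and tiles were imaged over ~14 h. Per-tile medians of signals normalised to baseline and to non-cleaving reference variants were fit to one- or two-exponential decays, giving kobs. kcat and KM came from weighted Michaelis–Menten fits across concentrations.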

Variants of B1 are the subject of series [2]. The experiment in a line: self-cleavage kobs at 640 uM GlcN6P; higher = faster cleavage; RNA array. The gist of the method: as §1
In series [3] the parent is B1. The series is described as follows: self-cleavage kobs at 2500 uM GlcN6P; higher = faster cleavage; RNA array. The gist of the method: as §1
In series [4] the parent is B1. The experiment in a line: self-cleavage kobs at 40 uM GlcN6P; higher = faster cleavage; RNA array. In outline: as §1
The variants in series [5] derive from B1. The series is described as follows: self-cleavage kobs at 160 uM GlcN6P; higher = faster cleavage; RNA array. The gist of the method:
as §1

Series [6] covers variants of B1. The series is described as follows: self-cleavage kobs at 10000 uM GlcN6P; higher = faster cleavage; RNA array. In outline: as §1
The variants in series [7] derive from B1. The experiment in a line: KM; higher = weaker cofactor use; RNA array. The gist of the method:
as §1

± gives the standard error. For some of these results: Variants at the floor of the assay were thinned out.

As to A15U C68G, the turnover number (kcat) with glucosamine-6-phosphate [1] was found to be 4.37e-05 ± 1e-05 s⁻¹. The “self-cleavage kobs at 640 uM GlcN6P” value in the series with glucosamine-6-phosphate [2] amounted to 2.81e-05 ± 1.4e-05 s⁻¹. Also, in the series with glucosamine-6-phosphate [3], the “self-cleavage kobs at 2500 uM GlcN6P” value came to 4.48e-05 ± 1e-05 s⁻¹.
For A39G C50U C58U, the “self-cleavage kobs at 40 uM GlcN6P” value with glucosamine-6-phosphate [4] is less than 1e-05 s⁻¹.
As for A14C A64C G66A, the “self-cleavage kobs at 40 uM GlcN6P” value with glucosamine-6-phosphate [4] was less than 1e-05 s⁻¹. In the series with glucosamine-6-phosphate [5], the “self-cleavage kobs at 160 uM GlcN6P” value was less than 1e-05 s⁻¹.
On to G13C G29U G32A U54G U65C C68G U69G, for which the “self-cleavage kobs at 40 uM GlcN6P” value with glucosamine-6-phosphate [4] was found to be 0.00014 ± 4.1e-05 s⁻¹. Besides, in the series with glucosamine-6-phosphate [5], the “self-cleavage kobs at 160 uM GlcN6P” value was 0.000198 ± 5.6e-05 s⁻¹. For the same variant, in the series with glucosamine-6-phosphate [2], the “self-cleavage kobs at 640 uM GlcN6P” value worked out at 0.000623 ± 0.00016 s⁻¹. Besides, in the series with glucosamine-6-phosphate [3], the “self-cleavage kobs at 2500 uM GlcN6P” value was 9.24e-05 ± 2.8e-05 s⁻¹. In addition, the “self-cleavage kobs at 10000 uM GlcN6P” value with glucosamine-6-phosphate [6] is 0.000151 ± 3.1e-05 s⁻¹.
Take C8A G66U: the “self-cleavage kobs at 40 uM GlcN6P” value with glucosamine-6-phosphate [4] was less than 1e-05 s⁻¹. In the series with glucosamine-6-phosphate [5], the “self-cleavage kobs at 160 uM GlcN6P” value was less than 1e-05 s⁻¹. In addition, in the series with glucosamine-6-phosphate [3], the “self-cleavage kobs at 2500 uM GlcN6P” value is less than 1e-05 s⁻¹.
As for C8U G44U, in the series with glucosamine-6-phosphate [4], the “self-cleavage kobs at 40 uM GlcN6P” value was less than 1e-05 s⁻¹. In the series with glucosamine-6-phosphate [5], the “self-cleavage kobs at 160 uM GlcN6P” value was less than 1e-05 s⁻¹. Besides, the “self-cleavage kobs at 640 uM GlcN6P” value in the series with glucosamine-6-phosphate [2] is less than 1e-05 s⁻¹. In addition, the “self-cleavage kobs at 2500 uM GlcN6P” value in the series with glucosamine-6-phosphate [3] is less than 1e-05 s⁻¹. For the same variant, the “self-cleavage kobs at 10000 uM GlcN6P” value with glucosamine-6-phosphate [6] was less than 1e-05 s⁻¹.
A52C U65G: the KM with glucosamine-6-phosphate [7] was determined as 197 ± 67 µM.
Regarding A33G C70A, in the series with glucosamine-6-phosphate [1], the turnover number (kcat) is 1.84e-05 ± 4.6e-06 s⁻¹.
Consider G7U C50G C68G, for which, in the series with glucosamine-6-phosphate [4], the “self-cleavage kobs at 40 uM GlcN6P” value came out at 0.000115 ± 2e-05 s⁻¹. In the series with glucosamine-6-phosphate [5], the “self-cleavage kobs at 160 uM GlcN6P” value amounted to 0.000493 ± 0.00019 s⁻¹. For the same variant, the “self-cleavage kobs at 2500 uM GlcN6P” value with glucosamine-6-phosphate [3] was found to be 0.000185 ± 6.6e-05 s⁻¹. Also, the “self-cleavage kobs at 10000 uM GlcN6P” value with glucosamine-6-phosphate [6] is 0.000186 ± 3.4e-05 s⁻¹.
Regarding A6G U56G U69G, in the series with glucosamine-6-phosphate [1], the kcat stood at 1.41e-05 ± 3e-06 s⁻¹.
In the case of G35U G59C, in the series with glucosamine-6-phosphate [4], the “self-cleavage kobs at 40 uM GlcN6P” value is less than 1e-05 s⁻¹. In addition, the “self-cleavage kobs at 160 uM GlcN6P” value with glucosamine-6-phosphate [5] was less than 1e-05 s⁻¹. In addition, the “self-cleavage kobs at 640 uM GlcN6P” value with glucosamine-6-phosphate [2] is less than 1e-05 s⁻¹. Besides, the “self-cleavage kobs at 2500 uM GlcN6P” value with glucosamine-6-phosphate [3] is less than 1e-05 s⁻¹. Further, in the series with glucosamine-6-phosphate [6], the “self-cleavage kobs at 10000 uM GlcN6P” value was less than 1e-05 s⁻¹.
Take C10U U31C C34U: the “self-cleavage kobs at 40 uM GlcN6P” value in the series with glucosamine-6-phosphate [4] was less than 1e-05 s⁻¹.
Same read-out and setting: next, G29C U49G C58A: less than 1e-05 s⁻¹.
On to U31G C34U A42G, for which the “self-cleavage kobs at 40 uM GlcN6P” value in the series with glucosamine-6-phosphate [4] is less than 1e-05 s⁻¹. In addition, the “self-cleavage kobs at 160 uM GlcN6P” value in the series with glucosamine-6-phosphate [5] was less than 1e-05 s⁻¹. In addition, the “self-cleavage kobs at 640 uM GlcN6P” value with glucosamine-6-phosphate [2] is less than 1e-05 s⁻¹. In addition, in the series with glucosamine-6-phosphate [3], the “self-cleavage kobs at 2500 uM GlcN6P” value was less than 1e-05 s⁻¹. In addition, the “self-cleavage kobs at 10000 uM GlcN6P” value with glucosamine-6-phosphate [6] is less than 1e-05 s⁻¹.
As to G35C A36G G37A A39G U65A, the “self-cleavage kobs at 40 uM GlcN6P” value with glucosamine-6-phosphate [4] was less than 1e-05 s⁻¹. Further, in the series with glucosamine-6-phosphate [6], the “self-cleavage kobs at 10000 uM GlcN6P” value is less than 1e-05 s⁻¹.
On to G9A A14G U30A, for which, in the series with glucosamine-6-phosphate [4], the “self-cleavage kobs at 40 uM GlcN6P” value was less than 1e-05 s⁻¹. The “self-cleavage kobs at 160 uM GlcN6P” value with glucosamine-6-phosphate [5] was less than 1e-05 s⁻¹. Moreover, the “self-cleavage kobs at 640 uM GlcN6P” value in the series with glucosamine-6-phosphate [2] was less than 1e-05 s⁻¹. Also, the “self-cleavage kobs at 10000 uM GlcN6P” value in the series with glucosamine-6-phosphate [6] is 4.06e-05 ± 1.5e-05 s⁻¹.
Turning to C58A U65A C67G, in the series with glucosamine-6-phosphate [4], the “self-cleavage kobs at 40 uM GlcN6P” value was less than 1e-05 s⁻¹.
As for G44U A52U G62C, the “self-cleavage kobs at 40 uM GlcN6P” value with glucosamine-6-phosphate [4] is less than 1e-05 s⁻¹. Also, the “self-cleavage kobs at 160 uM GlcN6P” value in the series with glucosamine-6-phosphate [5] is less than 1e-05 s⁻¹. Besides, the “self-cleavage kobs at 2500 uM GlcN6P” value in the series with glucosamine-6-phosphate [3] was less than 1e-05 s⁻¹.
Consider G9U G59U, for which the “self-cleavage kobs at 40 uM GlcN6P” value with glucosamine-6-phosphate [4] was less than 1e-05 s⁻¹. For the same variant, the “self-cleavage kobs at 160 uM GlcN6P” value with glucosamine-6-phosphate [5] was less than 1e-05 s⁻¹. In addition, the “self-cleavage kobs at 10000 uM GlcN6P” value with glucosamine-6-phosphate [6] was less than 1e-05 s⁻¹.
As for A15G G32C G41A G60A C71U, in the series with glucosamine-6-phosphate [4], the “self-cleavage kobs at 40 uM GlcN6P” value is less than 1e-05 s⁻¹.
On to G37U G60C, for which the “self-cleavage kobs at 40 uM GlcN6P” value in the series with glucosamine-6-phosphate [4] is less than 1e-05 s⁻¹. Further, the “self-cleavage kobs at 160 uM GlcN6P” value with glucosamine-6-phosphate [5] was less than 1e-05 s⁻¹. Also, in the series with glucosamine-6-phosphate [2], the “self-cleavage kobs at 640 uM GlcN6P” value is less than 1e-05 s⁻¹.
In the case of A15U U46G G51U, the Michaelis-Menten constant (KM) with glucosamine-6-phosphate [7] is 56.5 ± 15 µM.
G32C U57A: the “self-cleavage kobs at 40 uM GlcN6P” value in the series with glucosamine-6-phosphate [4] was less than 1e-05 s⁻¹.
Take A33C A42C: the “self-cleavage kobs at 40 uM GlcN6P” value in the series with glucosamine-6-phosphate [4] was less than 1e-05 s⁻¹. For the same variant, the “self-cleavage kobs at 160 uM GlcN6P” value in the series with glucosamine-6-phosphate [5] was less than 1e-05 s⁻¹. In the series with glucosamine-6-phosphate [2], the “self-cleavage kobs at 640 uM GlcN6P” value is less than 1e-05 s⁻¹. Moreover, the “self-cleavage kobs at 10000 uM GlcN6P” value in the series with glucosamine-6-phosphate [6] is less than 1e-05 s⁻¹.
C10G C16U U49C: the “self-cleavage kobs at 40 uM GlcN6P” value with glucosamine-6-phosphate [4] was less than 1e-05 s⁻¹. Moreover, the “self-cleavage kobs at 640 uM GlcN6P” value in the series with glucosamine-6-phosphate [2] was less than 1e-05 s⁻¹.
Regarding G37U U54C, in the series with glucosamine-6-phosphate [7], the Michaelis constant (KM) was found to be 2230 ± 960 µM.

The record behind these values is the supplement of paper PMC7125110.
